# “And” between values parts separate entries of the source, which are not always exact repeats. Identical values can stand only once.
# Biological target: IL-12 receptor on mouse lineage negative bone marrow cells (mouse) (UniProt Q60837)
# Test: cell-based or functional assay
# IL-12 receptor on mouse lineage negative bone marrow cells (mouse), sequence (Q60837 20-738, chain 1 of 2): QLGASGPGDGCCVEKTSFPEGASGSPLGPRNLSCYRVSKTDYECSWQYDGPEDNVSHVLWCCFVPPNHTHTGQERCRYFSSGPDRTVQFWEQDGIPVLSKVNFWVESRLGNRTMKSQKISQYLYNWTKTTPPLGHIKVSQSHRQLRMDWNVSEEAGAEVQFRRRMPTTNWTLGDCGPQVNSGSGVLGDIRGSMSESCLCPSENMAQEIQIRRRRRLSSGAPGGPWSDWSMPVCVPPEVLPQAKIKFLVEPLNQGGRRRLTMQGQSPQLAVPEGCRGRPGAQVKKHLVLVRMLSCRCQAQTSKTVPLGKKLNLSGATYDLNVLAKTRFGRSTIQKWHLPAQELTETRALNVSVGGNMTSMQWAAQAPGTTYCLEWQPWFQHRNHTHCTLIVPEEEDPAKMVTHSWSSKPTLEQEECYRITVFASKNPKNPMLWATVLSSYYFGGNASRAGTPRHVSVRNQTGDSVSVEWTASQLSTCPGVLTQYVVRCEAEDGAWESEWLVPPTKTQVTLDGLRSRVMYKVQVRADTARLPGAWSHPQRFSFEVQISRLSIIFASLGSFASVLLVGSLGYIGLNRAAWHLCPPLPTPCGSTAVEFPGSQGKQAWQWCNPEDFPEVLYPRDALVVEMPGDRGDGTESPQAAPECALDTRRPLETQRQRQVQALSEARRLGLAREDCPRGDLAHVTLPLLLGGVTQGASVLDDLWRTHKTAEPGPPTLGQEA
# IL-12 receptor on mouse lineage negative bone marrow cells (mouse), sequence (P97378 24-874, chain 2 of 2, further chain): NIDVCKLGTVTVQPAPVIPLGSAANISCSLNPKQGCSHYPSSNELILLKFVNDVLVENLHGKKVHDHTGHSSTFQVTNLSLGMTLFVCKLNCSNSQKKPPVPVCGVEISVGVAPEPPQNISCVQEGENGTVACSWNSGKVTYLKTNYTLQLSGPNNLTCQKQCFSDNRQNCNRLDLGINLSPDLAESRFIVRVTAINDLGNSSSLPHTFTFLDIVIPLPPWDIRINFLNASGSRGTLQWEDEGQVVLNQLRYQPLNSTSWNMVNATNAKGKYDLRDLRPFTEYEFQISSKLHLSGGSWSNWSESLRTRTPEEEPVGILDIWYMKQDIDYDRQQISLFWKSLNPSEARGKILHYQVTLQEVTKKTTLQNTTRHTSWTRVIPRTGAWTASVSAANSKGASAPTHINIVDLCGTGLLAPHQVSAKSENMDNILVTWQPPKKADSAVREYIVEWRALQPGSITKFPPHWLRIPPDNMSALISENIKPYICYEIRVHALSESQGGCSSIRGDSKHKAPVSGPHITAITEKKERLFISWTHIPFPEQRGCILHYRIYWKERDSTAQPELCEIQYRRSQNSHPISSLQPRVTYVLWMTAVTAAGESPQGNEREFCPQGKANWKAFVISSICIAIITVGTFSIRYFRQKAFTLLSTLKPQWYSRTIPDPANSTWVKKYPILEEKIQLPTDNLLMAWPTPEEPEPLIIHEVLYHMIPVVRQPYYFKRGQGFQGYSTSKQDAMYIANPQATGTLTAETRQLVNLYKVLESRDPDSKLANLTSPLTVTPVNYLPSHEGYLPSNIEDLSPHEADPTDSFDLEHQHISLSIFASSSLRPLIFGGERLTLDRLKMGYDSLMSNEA
substance,measurement,value
exogenous IL-12 (IL-12 ligand) injected into C57BL/6 mice in Example 7,"Fold-Increase in Lin- IL-12R+ cells (FACS of bone marrow after in vivo IL-12, 100 ng/mouse)",5.4 fold and 3.5 fold

# — patent US20130259828A1
